Experimental findings from PMC9268357 (Science (New York, N.y.), 2021) are described below.

The target of test [1] is T1, prefusion-stabilized MERS-CoV S ectodomain trimer (MERS-CoV, isolate not shown; stand-in …, UniProt K9N5Q8, stabilised). Description: cell-based or functional assay.
Test [2] addresses T2, prefusion-stabilized SARS-CoV S ectodomain trimer (SARS-CoV, isolate , UniProt P59594, stabilised). Description: cell-based or functional assay.
In test [3] the target is T1, prefusion-stabilized MERS-CoV S …. Description: SPR; S2P6 Fab fragment and S glycoproteins (fig. S1, G and H). The conditions noted are these: both partners purified.
Test [4] deals with T2, prefusion-stabilized SARS-CoV S …. The test is described as above. Particulars: both partners purified.

B1: S2P6 monoclonal antibody (antibody, V domains shown)
VH: EVQLVQSGAEVKKPGASVKVSCKASGYTFTSQYMHWVRQAPGQGLEWIGIINPSGVHTSYAQKFQGRVTLTRDTSTSTLYMELSSLRSEDTAVYYCARGSPKGAFDYWGQGTLVTVSS
VL: not shown
notes: also called S2P6 mAb; S2P6 IgG; copies: 2 + 2
On to B1, for which the “neutralization of VSV pseudotyped with MERS-CoV S, IC50” value in test [1] was 17.1 mg/L. Also, the “neutralization of VSV pseudotyped with SARS-CoV S, IC50” value in test [2] came to 2.4 mg/L.

B2: S2P6 Fab fragment (Fab, V domains shown)
VH: EVQLVQSGAEVKKPGASVKVSCKASGYTFTSQYMHWVRQAPGQGLEWIGIINPSGVHTSYAQKFQGRVTLTRDTSTSTLYMELSSLRSEDTAVYYCARGSPKGAFDYWGQGTLVTVSS
VL: not shown
One may read the Kd as a measure of binding affinity in units of concentration. Consider B2, for which the dissociation constant (Kd) in test [3] was found to be 12 nM; in test [4], 7 nM.
